According to the supplement of paper PMC9732359:
± gives the uncertainty stated by the source.

Experiment: protein stability index of a GFP-peptide fusion (yeast GPS) (PSI 1-4); higher = more stable; sorted into four equal gates, so the index is relative within each strain
Procedure, shortened: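 Plasmids in a pooled yeast library fused tiled 17-residue yeast protein peptides downstream of GFP and also expressed Cherry. Mid-log cultures grown without leucine were sorted into four equal gates by GFP/Cherry fluorescence ratio. Each gate's plasmids were PCR-amplified and Illumina-sequenced, and reads were matched to strains by barcodes. The protein stability index is derived by multiplying each gate's read frequency by its gate number and summing the results.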

Sequence YPESISNELIEHFSHFG [YDL088C/ASM4] has a protein stability index (doa10∆) of 2.76 ± 0.067, a protein stability index (pdr5∆) of 3.02 ± 0.048 and a protein stability index (san1∆) of 2.89 ± 0.043. It also gave a protein stability index (ubr1∆) of 2.93 ± 0.034.

For YPIYELLMSCPRLSHLS [GRR1], the protein stability index (doa10∆) was 1.42 ± 0.056, the protein stability index (pdr5∆) was 1.4 ± 0.048 and the protein stability index (san1∆) was 1.45 ± 0.14. It also gave a protein stability index (ubr1∆) of 1.39 ± 0.052.

With YPNEVLKFNHGNYSHLM [REC8] the protein stability index (doa10∆) was 2.7 ± 0.13, the protein stability index (pdr5∆) was 2.65 ± 0.059 and the protein stability index (san1∆) was 2.76 ± 0.059. It also gave a protein stability index (ubr1∆) of 2.88 ± 0.061.

With YQEDIFVSESPSFVKSG [ISW2] the protein stability index (doa10∆) was 2.85 ± 0.098, the protein stability index (pdr5∆) was 2.47 ± 0.077 and the protein stability index (san1∆) was 2.48 ± 0.13. It also gave a protein stability index (ubr1∆) of 2.73 ± 0.045.

Work on YQELAYRATSLDPSLRA [YML031W/NDC1] yielded a protein stability index (doa10∆) of 2.8 ± 0.049, a protein stability index (pdr5∆) of 2.89 ± 0.041 and a protein stability index (san1∆) of 2.83 ± 0.036. The protein stability index (ubr1∆) was 2.61 ± 0.031.

YQGVYSMGSILLSFVLG [YML031W/NDC1] showed a protein stability index (doa10∆) of 2.29 ± 0.074, a protein stability index (pdr5∆) of 2.14 ± 0.11 and a protein stability index (san1∆) of 2.58 ± 0.11. The protein stability index (ubr1∆) was 2.44 ± 0.12.

YQKEYETAERNIIQAKR [RPL7A] gave a protein stability index (doa10∆) of 2.81 ± 0.25, a protein stability index (pdr5∆) of 2.75 ± 0.14 and a protein stability index (san1∆) of 1.94 ± 0.16.

YQMHIKTSKDIAVLRSK [FAS1] gave a protein stability index (doa10∆) of 2.25 ± 0.051, a protein stability index (pdr5∆) of 2.14 ± 0.062 and a protein stability index (san1∆) of 2.3 ± 0.062. It also gave a protein stability index (ubr1∆) of 2.46 ± 0.072.

Sequence YQRPMQVQGQQQAQSFV [SSN3] has a protein stability index (doa10∆) of 2.42 ± 0.044, a protein stability index (pdr5∆) of 2.71 ± 0.045 and a protein stability index (san1∆) of 2.5 ± 0.05. The protein stability index (ubr1∆) was 2.63 ± 0.035.

With YRCFAQLELRQLNASIS [RRI2] the protein stability index (doa10∆) was 3.06 ± 0.2, the protein stability index (pdr5∆) was 3.24 ± 0.2 and the protein stability index (san1∆) was 3.12 ± 0.16. The protein stability index (ubr1∆) was 3.39 ± 0.17.

Work on YRLDIIESALKSKLDQD [RPN2] yielded a protein stability index (doa10∆) of 1.66 ± 0.093, a protein stability index (pdr5∆) of 1.96 ± 0.12 and a protein stability index (san1∆) of 1.99 ± 0.16. It also gave a protein stability index (ubr1∆) of 1.94 ± 0.19.

YRNFMVNSYRLNPNEYF [SWI3] gave a protein stability index (doa10∆) of 1.69 ± 0.12, a protein stability index (pdr5∆) of 1.45 ± 0.058 and a protein stability index (san1∆) of 2.3 ± 0.1. The protein stability index (ubr1∆) was 2.46 ± 0.075.

YRRALQSSESFDDSDIT [YML103C/NUP188] showed a protein stability index (doa10∆) of 1.89 ± 0.056, a protein stability index (pdr5∆) of 2.36 ± 0.059 and a protein stability index (san1∆) of 2.16 ± 0.058. For the same sequence, the protein stability index (ubr1∆) was 2.46 ± 0.047.

In the case of YRVTLESILQMNQGEGE [RPC34], the protein stability index (doa10∆) is reported as 2.94 ± 0.19, the protein stability index (pdr5∆) is reported as 3.16 ± 0.092 and the protein stability index (san1∆) is reported as 3.46 ± 0.26. It also gave a protein stability index (ubr1∆) of 2.97 ± 0.12.

With YSALNSTYLPKLISAFD [RRP42] the protein stability index (doa10∆) was 2.69 ± 0.068, the protein stability index (pdr5∆) was 2.41 ± 0.06 and the protein stability index (san1∆) was 2.57 ± 0.06. It also gave a protein stability index (ubr1∆) of 2.39 ± 0.055.

YSKDAKEIYYTPDPSEL [FAS2] showed a protein stability index (doa10∆) of 2.44 ± 0.026, a protein stability index (pdr5∆) of 2.81 ± 0.028 and a protein stability index (san1∆) of 2.6 ± 0.026. It also gave a protein stability index (ubr1∆) of 2.619 ± 0.024.

Sequence YSKIKHLGLDDPQDVFN [SIR2] has a protein stability index (doa10∆) of 2.77 ± 0.18, a protein stability index (pdr5∆) of 3.22 ± 0.19 and a protein stability index (san1∆) of 3.3 ± 0.14. It also gave a protein stability index (ubr1∆) of 3.24 ± 0.096.

Work on YSSYIYKVLKQTHPDTG [HTB1] yielded a protein stability index (doa10∆) of 2.58 ± 0.065, a protein stability index (pdr5∆) of 2.05 ± 0.051 and a protein stability index (san1∆) of 1.7 ± 0.074. It also gave a protein stability index (ubr1∆) of 1.81 ± 0.045.

YTANTSAQSIASAKSVR [YAR002W/NUP60] showed a protein stability index (doa10∆) of 2.64 ± 0.088, a protein stability index (pdr5∆) of 2.93 ± 0.11 and a protein stability index (san1∆) of 2.65 ± 0.09. For the same sequence, the protein stability index (ubr1∆) was 2.71 ± 0.12.

Work on YTKETYQSRGIDAMKAV [RPN6] yielded a protein stability index (doa10∆) of 2.59 ± 0.069, a protein stability index (pdr5∆) of 2.86 ± 0.072 and a protein stability index (san1∆) of 2.83 ± 0.064. It also gave a protein stability index (ubr1∆) of 2.39 ± 0.047.

YTLTEEGVEYLREYLNL [RPS10A] gave a protein stability index (doa10∆) of 3.28 ± 0.11, a protein stability index (pdr5∆) of 3.37 ± 0.095 and a protein stability index (san1∆) of 3.51 ± 0.16. It also gave a protein stability index (ubr1∆) of 3.39 ± 0.12.

YTREFVEAIRRSNQYQR [NUT2] showed a protein stability index (doa10∆) of 2.26 ± 0.07, a protein stability index (pdr5∆) of 2.18 ± 0.05 and a protein stability index (san1∆) of 2.88 ± 0.12. The protein stability index (ubr1∆) was 2.21 ± 0.082.

Work on YVESDEDDTQIVTGNLV [IRR1] yielded a protein stability index (doa10∆) of 3.47 ± 0.15, a protein stability index (pdr5∆) of 3.47 ± 0.12 and a protein stability index (san1∆) of 3.08 ± 0.08. For the same sequence, the protein stability index (ubr1∆) was 3.26 ± 0.076.

Work on YVFNARPDGVHVINVGK [RPS0A] yielded a protein stability index (pdr5∆) of 2.78 ± 0.24 and a protein stability index (ubr1∆) of 2.55 ± 0.11.

YVIHGIELLSDLINILE [LIN1] gave a protein stability index (pdr5∆) of 2.74 ± 0.25 and a protein stability index (ubr1∆) of 2.43 ± 0.14.

With YVISLSYTDAQDKSKKI [YMR129W/POM152] the protein stability index (doa10∆) was 2.67 ± 0.12, the protein stability index (pdr5∆) was 2.95 ± 0.082 and the protein stability index (san1∆) was 2.9 ± 0.072. For the same sequence, the protein stability index (ubr1∆) was 2.68 ± 0.06.

For YVKEKLEAVNSMIEKGG [RPN7], the protein stability index (doa10∆) was 2.93 ± 0.14, the protein stability index (pdr5∆) was 2.98 ± 0.1 and the protein stability index (san1∆) was 2.77 ± 0.08. For the same sequence, the protein stability index (ubr1∆) was 2.83 ± 0.06.

For YVNDVAIYNNPTRIRTK [RRI2], the protein stability index (doa10∆) was 1.81 ± 0.052, the protein stability index (pdr5∆) was 2.54 ± 0.032 and the protein stability index (san1∆) was 2.19 ± 0.058. It also gave a protein stability index (ubr1∆) of 2.4 ± 0.04.

With YVYRASKEVRGSKIRVM [RPL33A] the protein stability index (doa10∆) was 2.75 ± 0.063, the protein stability index (pdr5∆) was 2.81 ± 0.086 and the protein stability index (san1∆) was 2.5 ± 0.064. It also gave a protein stability index (ubr1∆) of 2.88 ± 0.049.

For YWQYKAGIPIGLKRSQL [SWP82], the protein stability index (doa10∆) was 1.7 ± 0.13, the protein stability index (pdr5∆) was 1.57 ± 0.081 and the protein stability index (san1∆) was 1.69 ± 0.15. It also gave a protein stability index (ubr1∆) of 1.49 ± 0.049.

In the case of YYAKKRAFTKKVSSASA [RPL16B], the protein stability index (doa10∆) is reported as 1.82 ± 0.075, the protein stability index (pdr5∆) is reported as 1.71 ± 0.048 and the protein stability index (san1∆) is reported as 1.95 ± 0.068. The protein stability index (ubr1∆) was 1.41 ± 0.055.

For YYDRKEELKNMFLYILK [RRI2], the protein stability index (doa10∆) was 2.16 ± 0.22, the protein stability index (pdr5∆) was 1.95 ± 0.13 and the protein stability index (san1∆) was 1.27 ± 0.11. For the same sequence, the protein stability index (ubr1∆) was 1.52 ± 0.1.

Sequence YYNEEGIHILLYSGLII [RPC82] has a protein stability index (doa10∆) of 2.01 ± 0.1, a protein stability index (pdr5∆) of 2.04 ± 0.094 and a protein stability index (san1∆) of 2.14 ± 0.18. The protein stability index (ubr1∆) was 2.28 ± 0.037.

In the case of YYNPQAGTKITICIELK [RGR1], the protein stability index (doa10∆) is reported as 2.16 ± 0.13, the protein stability index (pdr5∆) is reported as 2.24 ± 0.23 and the protein stability index (san1∆) is reported as 2.1 ± 0.13. For the same sequence, the protein stability index (ubr1∆) was 2.48 ± 0.1.
